Data reported in publication PMC7641744.
Read-outs that look alike come from different tables or passages of the source. Each block holds one molecule with its values, some of them ahead of it.

Assays:
[1] = tested on: T1, RcopLS20-His(6) (Bacillus subtilis plasmid pLS20 (pLS20cat)), ORF:72252162; assay: analytical ultracentrifugation
T1 sequence: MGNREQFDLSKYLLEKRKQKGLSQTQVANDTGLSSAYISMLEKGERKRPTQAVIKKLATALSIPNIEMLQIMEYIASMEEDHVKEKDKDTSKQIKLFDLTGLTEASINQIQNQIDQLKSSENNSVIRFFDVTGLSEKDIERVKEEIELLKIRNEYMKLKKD

[2] = tested on: T2, RappLS20-His(6) (Bacillus subtilis plasmid pLS20 (pLS20cat)), ORF:c1c32938; assay: EMSA
T2 sequence: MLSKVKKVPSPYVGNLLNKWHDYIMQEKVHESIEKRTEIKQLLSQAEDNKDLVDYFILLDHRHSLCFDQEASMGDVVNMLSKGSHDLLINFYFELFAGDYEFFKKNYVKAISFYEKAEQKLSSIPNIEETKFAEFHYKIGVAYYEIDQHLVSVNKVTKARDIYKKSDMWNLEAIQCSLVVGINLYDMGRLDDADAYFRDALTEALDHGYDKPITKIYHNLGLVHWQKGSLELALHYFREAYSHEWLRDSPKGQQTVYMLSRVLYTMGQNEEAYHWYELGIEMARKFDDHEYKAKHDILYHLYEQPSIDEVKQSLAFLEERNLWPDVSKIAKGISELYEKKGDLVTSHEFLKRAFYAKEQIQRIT

[3] = tested on: T1, RcopLS20-His(6) (Bacillus subtilis plasmid pLS20 (pLS20cat)), ORF:72252162; assay: EMSA
[4] = target: Rap_(pLS20)-His(6) (Bacillus subtilis plasmid pLS20); assay: AUC
[5] = target: Rap_(pLS20)-His(6) (Bacillus subtilis plasmid pLS20); assay: AUC; remark: listed apart in the source
[6] = target: Rap_(pLS20)-His(6) (Bacillus subtilis plasmid pLS20); assay: AUC; remark: listed apart in the source
[7] = target: Rco_(pLS20)-His(6) (Bacillus subtilis plasmid pLS20); assay: AUC

Molecule: CGCGGATCCTATACCACCTCGCAAAATAAACCCTGTATACGGTCTAGCGCTTACAATTTTTCGCGTTTTTTTTACTCAGTGAAAAAAACCGGTTAAAAATTTCACTGAAATACTTTACAGTTAAAAAAATGTCTGTTATCTTAGTGAAAGAGTCAGTGAAAAAAATGCAGAATAAGGTTTTTTGTTGTTAATCTCAAACAATTTCTGTGTAAAAAGAAC (double strand) [Fragment FIII (219 bp, operator OII)]
binding [1]: binds
binding [2]: no binding
binding [3]: binds

Molecule: Phr*_(pLS20) (peptide)
Kd [4]: 2.1 µM

Molecule: PhrF*-I5Y (peptide)
Kd [4]: 4.2 µM

Molecule: QRGMI [PhrF*]
Kd [4]: 5.3 µM

The remaining lines, values ahead:

Kd [4]: 4.2 µM
Molecule: PhrF*-R2K (peptide)

stoichiometry N [5]: 4
stoichiometry N [4]: 4
stoichiometry N [6]: 2
Molecule: Rap_(pLS20)-His(6) (natural protein)

stoichiometry N ([4]; scale: mol of Rco_(pLS20) per mol of Rap_(pLS20)): 2.1
stoichiometry N [7]: 4
Molecule: Rco_(pLS20)-His(6) (natural protein)
